Tests used:
Type in all cases: binding
human glypican-1 (GPC-1) = test: PEPSCAN-based ELISA on linear and CLIPS peptide arrays (sets 1-5) spanning GPC-1
Description: The following human glypican-1 (GPC-1) sequence was used as a basis to generate a library of structured peptides.
To reconstruct discontinuous epitopes of the target molecule a library of structured peptides was synthesized. This was done using Chemically Linked Peptides on Scaffolds (CLIPS) technology. CLIPS technology allowed the generation of structured peptides in single loops, double-loops, triple loops, sheet-like folds, helix-like folds and combinations thereof. CLIPS templates were coupled to cysteine residues. The side-chains of multiple cysteines in the peptides were coupled to one or two CLIPS templates. For example, a 0.5 mM solution of the T2 CLIPS template 1,3-bis (bromomethyl) benzene was dissolved in ammonium bicarbonate (20 mM, pH 7.9)/acetonitrile (1:1(v/v)). This solution was added onto the peptide arrays. The CLIPS template bound to side-chains of two cysteines as present in the solid-phase bound peptides of the peptide-arrays (455 wells plate with 3 μl wells). The peptide arrays were gently shaken in the solution for 30 to 60 minutes while completely covered in solution. Finally, the peptide arrays were washed extensively with excess of H2O and sonicated in disrupt-buffer containing 1 percent SDS/0.1 percent beta-mercaptoethanol in PBS (pH 7.2) at 70° C. for 30 minutes, followed by sonication in H2O for another 45 minutes. The T3 CLIPS carrying peptides were made in a similar way but with three cysteines.
The binding of antibody to each of the synthesized peptides was tested in a PEPSCAN-based ELISA. The peptide arrays were incubated with primary antibody solution (overnight at 4° C.). […] After one hour, the color development was measured. The color development was quantified with a charge coupled device (CCD)-camera and an image processing system.
The values obtained from the CCD camera ranged from 0 to 3000 mAU, similar to a standard 96-well plate ELISA-reader. The results were quantified and stored in the Peplab database. […] The cards were manually inspected and any values caused by an air-bubble were scored as 0. […]

glypican-1 core protein = target: T1, glypican-1 core protein (Homo sapiens, UniProt P35052); test: 2D electrophoresis and western blotting of DU-145 MPEK extracts
T1 construct: endogenous in cells; host or cells: DU-145 prostate cancer cells (membrane protein extract)
T1 sequence (P35052 24-558): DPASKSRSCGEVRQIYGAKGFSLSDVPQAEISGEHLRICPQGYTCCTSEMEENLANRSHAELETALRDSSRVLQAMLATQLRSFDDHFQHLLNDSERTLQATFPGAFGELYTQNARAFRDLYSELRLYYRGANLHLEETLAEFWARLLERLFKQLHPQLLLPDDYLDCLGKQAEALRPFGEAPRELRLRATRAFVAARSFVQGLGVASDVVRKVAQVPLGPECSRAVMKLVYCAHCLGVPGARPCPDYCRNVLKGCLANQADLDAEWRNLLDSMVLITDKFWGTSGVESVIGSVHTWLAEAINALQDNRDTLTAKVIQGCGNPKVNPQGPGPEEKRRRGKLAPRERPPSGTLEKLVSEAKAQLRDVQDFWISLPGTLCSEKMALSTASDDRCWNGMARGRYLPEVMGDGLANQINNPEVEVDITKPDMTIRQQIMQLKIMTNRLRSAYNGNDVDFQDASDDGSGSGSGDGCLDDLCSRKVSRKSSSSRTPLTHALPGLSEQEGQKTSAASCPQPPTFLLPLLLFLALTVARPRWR
Description: To confirm that MIL38 recognized glypican-1, prostate cancer DU-145 MPEK extracts were subjected to 2D electrophoresis and western blotting.
Membrane protein extracts (MPEK) of DU-145 prostate cancer cells were separated on 2D gel (pI gradient-horizontal, and molecular mass vertical). Western blots using MIL38 antibody and commercial rGPC-1 rabbit polyclonal antibodies show overlapping reactivity marking a 60Kd protein (circled in FIG. 14). Lane D (FIG. 14) is a one dimension separation for DU-145 extracts as a control. Lane M (FIG. 14) is a one dimension separation lane for molecular size markers as controls.

glypican-1 [1] = target: T2, glypican-1 (Homo sapiens, UniProt P35052); test: Immunoprecipitation and western blot of DU-145 or C3 (MIL38 negative) MPEK extracts
T2 construct: endogenous in cells; host or cells: DU-145 prostate cancer cells (membrane protein extract)
T2 sequence (P35052 24-558): T1 sequence (P35052 24-558)
Description: MIL38 or rabbit anti-GPC-1 antibodies were used to immunoprecipitate their respective antigens from DU-145 or C3 (MIL38 negative) MPEK extracts. The immunoprecipitates (IPs) were western blotted with either MIL38 or anti-GPC-1 antibody (FIG. 15).
MIL38 and rabbit anti-GPC-1 antibodies were each used to immunoprecipitate their antigens from DU-145 prostate cancer or C3 (MIL38 negative) cell membrane protein extracts. Shown are the western blots of the immunoprecipitations detected with either MIL38 or anti-GPC-1 antibody. FIG. 15A depicts GPC1 detection of MIL38 immunoprecipitates (left) and MIL38 detection of GPC1 immunoprecipitates (right). FIG. 15B depicts MIL38 detection of MIL38 immunoprecipitates as a control. Lanes are: Magic Mark-commercial protein marker as control; DU145 MPEK-prostate cancer membrane protein extract (not immunoprecipitated); DU145 FT-prostate cancer flow through from immune precipitation; DU145 IP-immunoprecipitate using antibody; C3 MPEK-(MIL38 negative) control membrane protein extract (not immunoprecipitated); C3 FT-flow through from immune precipitation; C3 IP elution-(MIL38 negative) immunoprecipitate using antibody. MIL38 can detect the immunoprecipitate from rGPC1 antibody and vice versa. MIL38 can also bind to all controls including DU145 MPEK and to IP conducted by MIL38.

glypican-1 [2] = target: T3, glypican-1 (Homo sapiens, UniProt P35052); test: MIL38 immunoprecipitation and western blot of plasma samples (normal and prostate cancer patient)
T3 construct: from tissue; host or cells: human plasma (patients 042 and 046), with or without heparinase treatment
T3 sequence (P35052 24-530 limits assumed): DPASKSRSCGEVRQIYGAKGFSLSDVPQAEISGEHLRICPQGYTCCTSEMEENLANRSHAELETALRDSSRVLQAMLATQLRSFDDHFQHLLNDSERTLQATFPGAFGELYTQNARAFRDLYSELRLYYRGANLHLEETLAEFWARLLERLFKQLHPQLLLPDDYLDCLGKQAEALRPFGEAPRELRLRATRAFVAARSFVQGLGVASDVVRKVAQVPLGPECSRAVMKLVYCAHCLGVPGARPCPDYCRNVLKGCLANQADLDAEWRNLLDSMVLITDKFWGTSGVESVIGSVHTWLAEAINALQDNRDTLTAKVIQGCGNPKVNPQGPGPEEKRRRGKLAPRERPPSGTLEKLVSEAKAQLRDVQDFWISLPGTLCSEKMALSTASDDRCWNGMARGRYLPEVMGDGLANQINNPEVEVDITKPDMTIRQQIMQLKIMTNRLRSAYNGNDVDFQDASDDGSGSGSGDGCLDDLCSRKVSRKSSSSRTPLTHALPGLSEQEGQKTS
Description: Plasma samples from one normal patient (042) and one prostate cancer patient (046) were immunoprecipitated with MIL38 antibody and the IP sample western blotted with MIL38 and anti-GPC-1 antibodies (FIG. 16A).

MIL38 antigen = target: T4, MIL38 antigen (Homo sapiens, UniProt P35052); test: Western blot of membrane protein extracts from normal prostate and prostate cancer; conditions: equivalent amounts of protein
T4 construct: tissue Novus Bio; host or cells: membrane protein extracts of normal prostate and prostate cancer
T4 sequence (P35052 24-558): T1 sequence (P35052 24-558)
Description: To determine if MIL38 antigen could be detected in membrane protein extracts from normal prostate and prostate cancer, one sample of each was obtained from Novus Bio. Equivalent amounts of protein were western blotted using MIL38 antibody (FIG. 16B).

B1: MIL38-AM4: Murine anti human glypican 1 monoclonal antibody produced by hybridoma cells deposited at Cellbank Australia under accession number CBA20140026 (antibody)
heavy: QIQLVQSGPELKKPGETVKISCKASGYAFTDYSMNWVKQAPGKGLRWMGWINTETGEPTYTDDFKGRFAFSLETSASTAFLQINNLRNEDTATYFCARHYDYGGFPYWGQGTLVTVSAAKTTPPSVYPLAPGSAAQTNSMVTLGCLVKGYFPEPVTVTWNSGSLSSGVHTFPAVLQSDLYTLSSSVTVPSSTWPSETVTCNVAHPASSTKVDKKIVPRDCGCKPCICTVPEVSSVFIFPPKPKDVLTITLTPKVTCVVVDISKDDPEVQFSWFVDDVEVHTAQTQPREEQFNSTFRSVSELPIMHQDWLNGKEFKCRVNSAAFPAPIEKTISKTKGRPKAPQVYTIPPPKEQMAKDKVSLTCMITDFFPEDITVEWQWNGQPAENYKNTQPIMDTDGSYFVYSKLNVQKSNWEAGNTFTCSVLHEGLHNHHTEKSLSHSPGK
light: DIQMTQSPASLSASVGETVTITCRASGNVHNYLAWYQQKQGKSPQLLVYTAKTLADGVPSRFSGSGSGTQYSLKINSLQPEDFGTYYCQHFWSNPWTFGGGTKLEIKRADAAPTVSIFPPSSEQLTSGGASVVCFLNNFYPKDINVKWKIDGSERQNGVLNSWTDQDSKDSTYSMSSTLTLTKDEYERHNSYTCEATHKTSTSPIVKSFNRNEC
ELISA response versus antibody concentration (human glypican-1 (GPC-1); 1 μg/ml and 10 μg/ml, normal stringency): concentration dependent response | saturation of ELISA signal (human glypican-1 (GPC-1); 10 μg/ml): saturation was not observed | stretches / common cores of GPC-1 recognized on the peptide arrays (human glypican-1 (GPC-1); peptide sets 1-5 (linear, loop, helical, sheet)): 135TQNARAFRD143 (SEQ ID NO: 7) and 348[…]358 (SEQ ID NO: 2) | molecular weight of protein detected (glypican-1 core protein): 60 kDa | depletion of MIL38 and anti-GPC-1 antigens by immunoprecipitation (glypican-1 [1]; DU-145 MPEK flow through): almost complete depletion | reactive band detected in the other antibody's immunoprecipitate (glypican-1 [1]; DU-145 MPEK, IP with one antibody, blot with the other): 60 kDa | specific bands detected in plasma immunoprecipitates (glypican-1 [2]; MIL38 IP of both plasma samples): approx. 70 kDa | signal in prostate cancer patient plasma compared to normal patient plasma (glypican-1 [2]; patient 046 vs 042): markedly higher | expression of MIL38 antigen in prostate cancer extract versus normal prostate sample (MIL38 antigen): much higher

From patent US20210107958A1, “GLYPICAN EPITOPES AND USES THEREOF” (MINOMIC INTERNATIONAL LTD., priority 2015, published 2021)
